The values that follow come from publication PMC9695642, “Conservation of Importin α Function in Apicomplexans: Ivermectin and GW5074 Target Plasmodium falciparum Importin α and Inhibit Parasite Growth in Culture” (International Journal of Molecular Sciences, 2022).

Assay [1] deals with His-tagged TGS1-NLS-GFP (NLS of P. falciparum trimethylguanosine synthase fused to GFP) (Plasmodium falciparum). The assay can be described thus: AlphaScreen or HTRF; biotinylated IMPαs titrated against His-tagged NLS-GFPs (30 nM); apparent dissociation constant. (In general: In Alpha technology, singlet oxygen from a donor bead excites a nearby acceptor bead.)
In assay [2] the target is His-tagged GCN5-NLS-GFP (NLS of T. gondii histone acetyltransferase GCN5 fused to GFP) (Toxoplasma gondii). The description is as above.
Assay [3] has as its target His-tagged Toxoplasma gondii importin α (Toxoplasma gondii). The assay can be described thus: AlphaScreen or HTRF; His-tagged IMPαs (30 nM) titrated with increasing concentrations of biotinylated GST-MmIMPβ1 (legend: 5 nM).
Assay [4] addresses His-tagged Mus musculus importin α (Mus musculus) (UniProt P52293). Described as above.

With “Toxoplasma gondii importin α, biotinylated GST fusion protein (natural protein)”, the figures for the Kd in assay [1] and in assay [2] were 1.9 nM and 5 nM, respectively. “biotinylated GST-MmIMPβ1 (Mus musculus importin β1) (from UniProt P70168 1-876)” came in with a Kd in assay [3] of 1.2 nM. In assay [4], “biotinylated GST-MmIMPβ1 (Mus musculus importin β1) (from UniProt P70168 1-876) (natural protein)” gave a Kd of 2.5 nM. As for “mammalian IMPα/β1 heterodimer from M. musculus (from UniProt P52293 1-529; P70168 1-876) (complex)”, the Kd turned out to be 2.5 nM in assay [1] and 3.2 nM in assay [2].
